Results reported in article PMC8417293, “Impact of crowded environments on binding between protein and single-stranded DNA”.

How the values were obtained:
Details in all cases: protein: recombinant; single strand
[1] = molecular target: T1, BsCspB (cold shock protein B) (UniProt P32081 1-67); test: intrinsic Trp fluorescence quenching; 300 g/L PEG1; 20 mM disodium phosphate pH 7.0, no added salt stated; fluorescence titration 298 K (0.5, 2.8 or 4 uM protein; table marks a/b not explained in the material); stopped-flow 288 K (60 or 300 nM protein); NMR 298 or 294.4 K with 5% D2O
T1 sequence (P32081 whole entry): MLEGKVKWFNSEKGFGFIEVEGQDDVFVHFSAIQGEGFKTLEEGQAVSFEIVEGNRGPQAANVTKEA

[2] = molecular target: T1, BsCspB (cold shock protein B); test: intrinsic Trp fluorescence quenching; dilute; 20 mM disodium phosphate pH 7.0, no added salt stated; fluorescence titration 298 K (0.5, 2.8 or 4 uM protein; table marks a/b not explained in the material); stopped-flow 288 K (60 or 300 nM protein); NMR 298 or 294.4 K with 5% D2O
[3] = molecular target: T1, BsCspB (cold shock protein B); test: intrinsic Trp fluorescence quenching; 100 g/L Dex20 (series b); 20 mM disodium phosphate pH 7.0, no added salt stated; fluorescence titration 298 K (0.5, 2.8 or 4 uM protein; table marks a/b not explained in the material); stopped-flow 288 K (60 or 300 nM protein); NMR 298 or 294.4 K with 5% D2O
[4] = molecular target: T1, BsCspB (cold shock protein B); test: intrinsic Trp fluorescence quenching; 200 g/L Dex20 (series b); 20 mM disodium phosphate pH 7.0, no added salt stated; fluorescence titration 298 K (0.5, 2.8 or 4 uM protein; table marks a/b not explained in the material); stopped-flow 288 K (60 or 300 nM protein); NMR 298 or 294.4 K with 5% D2O
[5] = molecular target: T1, BsCspB (cold shock protein B); test: intrinsic Trp fluorescence quenching; 300 g/L ethylene glycol; 20 mM disodium phosphate pH 7.0, no added salt stated; fluorescence titration 298 K (0.5, 2.8 or 4 uM protein; table marks a/b not explained in the material); stopped-flow 288 K (60 or 300 nM protein); NMR 298 or 294.4 K with 5% D2O
[6] = molecular target: T1, BsCspB (cold shock protein B); test: intrinsic Trp fluorescence quenching; 300 g/L Dex20 (series b); 20 mM disodium phosphate pH 7.0, no added salt stated; fluorescence titration 298 K (0.5, 2.8 or 4 uM protein; table marks a/b not explained in the material); stopped-flow 288 K (60 or 300 nM protein); NMR 298 or 294.4 K with 5% D2O
[7] = molecular target: T1, BsCspB (cold shock protein B); test: intrinsic Trp fluorescence quenching; dilute (series b); 20 mM disodium phosphate pH 7.0, no added salt stated; fluorescence titration 298 K (0.5, 2.8 or 4 uM protein; table marks a/b not explained in the material); stopped-flow 288 K (60 or 300 nM protein); NMR 298 or 294.4 K with 5% D2O
[8] = molecular target: T1, BsCspB (cold shock protein B); test: intrinsic Trp fluorescence quenching; 300 g/L glucose; 20 mM disodium phosphate pH 7.0, no added salt stated; fluorescence titration 298 K (0.5, 2.8 or 4 uM protein; table marks a/b not explained in the material); stopped-flow 288 K (60 or 300 nM protein); NMR 298 or 294.4 K with 5% D2O
[9] = molecular target: T1, BsCspB (cold shock protein B); test: intrinsic Trp fluorescence quenching; 300 g/L PEG1 (series a); 20 mM disodium phosphate pH 7.0, no added salt stated; fluorescence titration 298 K (0.5, 2.8 or 4 uM protein; table marks a/b not explained in the material); stopped-flow 288 K (60 or 300 nM protein); NMR 298 or 294.4 K with 5% D2O
[10] = molecular target: T1, BsCspB (cold shock protein B); test: intrinsic Trp fluorescence quenching; dilute (series a); 20 mM disodium phosphate pH 7.0, no added salt stated; fluorescence titration 298 K (0.5, 2.8 or 4 uM protein; table marks a/b not explained in the material); stopped-flow 288 K (60 or 300 nM protein); NMR 298 or 294.4 K with 5% D2O
[11] = molecular target: T1, BsCspB (cold shock protein B); test: intrinsic Trp fluorescence quenching; 300 g/L Dex20 (series a); 20 mM disodium phosphate pH 7.0, no added salt stated; fluorescence titration 298 K (0.5, 2.8 or 4 uM protein; table marks a/b not explained in the material); stopped-flow 288 K (60 or 300 nM protein); NMR 298 or 294.4 K with 5% D2O
[12] = molecular target: T1, BsCspB (cold shock protein B); test: intrinsic Trp fluorescence quenching; 100 g/L PEG1 (series b); 20 mM disodium phosphate pH 7.0, no added salt stated; fluorescence titration 298 K (0.5, 2.8 or 4 uM protein; table marks a/b not explained in the material); stopped-flow 288 K (60 or 300 nM protein); NMR 298 or 294.4 K with 5% D2O
[13] = molecular target: T1, BsCspB (cold shock protein B); test: intrinsic Trp fluorescence quenching; 200 g/L PEG1; 20 mM disodium phosphate pH 7.0, no added salt stated; fluorescence titration 298 K (0.5, 2.8 or 4 uM protein; table marks a/b not explained in the material); stopped-flow 288 K (60 or 300 nM protein); NMR 298 or 294.4 K with 5% D2O
[14] = molecular target: T1, BsCspB (cold shock protein B); test: intrinsic Trp fluorescence quenching; 100 g/L PEG8; 20 mM disodium phosphate pH 7.0, no added salt stated; fluorescence titration 298 K (0.5, 2.8 or 4 uM protein; table marks a/b not explained in the material); stopped-flow 288 K (60 or 300 nM protein); NMR 298 or 294.4 K with 5% D2O
[15] = molecular target: T1, BsCspB (cold shock protein B); test: intrinsic Trp fluorescence quenching; 200 g/L PEG8; 20 mM disodium phosphate pH 7.0, no added salt stated; fluorescence titration 298 K (0.5, 2.8 or 4 uM protein; table marks a/b not explained in the material); stopped-flow 288 K (60 or 300 nM protein); NMR 298 or 294.4 K with 5% D2O

| Binder | Kd [1] | Kd [2] | Kd [3] | Kd [4] | Kd [5] | Kd [6] | Kd [7] | Kd [8] | Kd [9] | Kd [10] | Kd [11] | Kd [12] | Kd [13] | Kd [14] | Kd [15] |
| --- | --- | --- | --- | --- | --- | --- | --- | --- | --- | --- | --- | --- | --- | --- | --- |
| TTTT (ssDNA) [dT4] | 17000 ± 1100 nM | 6100 ± 300 nM | – | – | – | – | – | – | – | – | – | – | – | – | – |
| TTTTT (ssDNA) [dT5] | 3800 ± 100 nM | 750 ± 50 nM | 710 ± 20 nM | 680 ± 20 nM | 5100 ± 400 nM | 350 ± 50 nM | 780 ± 10 nM | 1310 ± 20 nM | – | – | – | – | – | – | – |
| TTTTTT (ssDNA) [dT6] | 580 ± 10 nM | 80 ± 10 nM | – | – | – | – | – | – | 415 ± 5 nM | 30 ± 10 nM | – | – | – | – | – |
| TTTTTTT (ssDNA) [dT7] | 570 ± 30 nM | 15 ± 5 nM | – | – | – | 6 ± 3 nM | – | – | 170 ± 5 nM | 7 ± 3 nM | 5 ± 3 nM | 10 ± 10 nM | 75 ± 15 nM | 14 ± 7 nM | 90 ± 20 nM |
